Laboratory results published in patent EP4063498B1.
Positions count from the first letter of the chain named.

B1: antibody HB12 (antibody, V domains shown)
VH: VQLQQSGAELVKPGASVKLSCKTSGYTFTSYWMYWVKQRPGQGLEWIGEIYPTNGRTNYNEKFKTKATLTVDKSSSTAYMQLSSLTSEDSAVYYCAIYYYGSYAMDYWGQGTSVTVSS
VL: DIVMTQSHKFMSTSVGDRVSITCKASQDVSIAVAWFQQKPGQSPKLLIYWASTRHTGVPDRFTGSGSGTDYTLTISSVQAEDLALYYCQQHYSTPYLFGGGTKLEIKR
B2: antibody FA2 (antibody, V domains shown)
VH: VQLKQSGPGLVQPSQSLSITCTVSGFSLTSYGVHWVRRSPGKGLEWLGVIWRGGNTDYNAAFMSRLSITKDNSKSQVFFKMTSLQGDDTAIYSCVKSLTTSTFDYWGQGTLVTVSS
VL: B1 VL with F10L, A25G, S30R, I31T, F36Y, K45N, T72I, S76T, T94I, L97T

Biological target: OXA-23-type carbapenemase (UniProt Q9L4P2)
UniProt Q9L4P2, sequence (Q9L4P2 18-273 limits assumed): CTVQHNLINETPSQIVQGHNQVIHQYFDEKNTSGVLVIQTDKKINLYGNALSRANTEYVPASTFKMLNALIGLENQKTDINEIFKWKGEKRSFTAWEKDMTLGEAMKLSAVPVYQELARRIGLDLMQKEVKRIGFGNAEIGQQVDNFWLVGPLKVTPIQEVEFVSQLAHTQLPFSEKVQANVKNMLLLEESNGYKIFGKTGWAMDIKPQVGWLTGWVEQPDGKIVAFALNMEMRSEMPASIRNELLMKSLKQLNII
Assay: indirect ELISA, plate coated with OXA-23-type carbapenemase at 0.2 ug/mL, serial dilution of purified antibody from 1:1,000
Conditions: scale: dilution factor

| Binder | titer |
| --- | --- |
| B1 | > 640000 |
| B2 | > 640000 |
